Measurements: patent US20200371091A1, “BCMA-TARGETING CHIMERIC ANTIGEN RECEPTOR, AND USES THEREOF” (Novartis AG, priority 2017, published 2020)

Experiments:
[1] = target: BCMA (B-cell maturation antigen) on the surface of cell lines (UniProt Q02223); test: flow cytometry on HBL-1 cells; Quantum Simply Cellular quantification kit
[2] = target: BCMA (B-cell maturation antigen) on the surface of cell lines (UniProt Q02223); test: flow cytometry on SuDHL-6 cells; Quantum Simply Cellular quantification kit
[3] = assay type: in vivo; settings: subject 03; 1.5 g/m2 on day 17 after high-dose steroids without improvement

BCMA (B-cell maturation antigen) on the surface of cell lines, sequence (Q02223 whole entry): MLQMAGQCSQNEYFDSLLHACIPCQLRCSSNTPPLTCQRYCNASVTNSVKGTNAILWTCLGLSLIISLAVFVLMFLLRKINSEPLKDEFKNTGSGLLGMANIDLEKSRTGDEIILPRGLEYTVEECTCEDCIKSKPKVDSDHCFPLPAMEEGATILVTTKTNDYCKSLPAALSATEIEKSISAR

antibody binding capacity (ABC) [1]	antibody binding capacity (ABC) [2]	Compound	time to rapid neurologic improvement of PRES-like grade 4 neurotoxicity [3]
> 5000	> 5000	PE-labeled anti-BCMA antibody (Biolegend, cat #357504)	–
–	–	O=P1(N(CCCl)CCCl)NCCCO1 (stereo not drawn) [cyclophosphamide]	≤ 48 hours
